Results: publication PMC5043019, “Unique and Universal Features of Epsilonproteobacterial Origins of Chromosome Replication and DnaA-DnaA Box Interactions” (Frontiers in Microbiology, 2016)

B1: Arcobacter butzleri DnaA protein (natural protein, A. butzleri RM4018, UniProt A8EQT0 1-438, looked up)
chain: MTTKEFLTIIQKEANQIDYERYLKQLVYKKVSSDNKIAIFEVNNKYIASWIKSKFTNLIQHCFEIYDGSKPTIEIKLSNEKKSKKEILKEQTQNESTESTILNPSYTFDSFVVGPSNQMAYNASLAVANKPGIQYNPLFIYGGTGLGKTHLLQAVGNHAIEKGNTVIYVTIEQFMNDFTFSIKNKNMEHFRNKYRKCDVLLIDDIQFLSGKEQTQEEFFHTFNELHNAKKQIVMTSDRLPSQIAGLVDRLKSRFEWGLTADVQIPGLETKIAIIEKKSELNGICLSREIINFIATNLDNSIREIEGVLIRINASASLLNQEITLPMVQGLLKEQIKETKENVKLPDIINIVANQLNIKPSDIKSKKRTATVANARRIVIYLVRELTHNSMPDIAKFLGMKDHSAISHNIKKANELIEKDENFKLIIENLKNKIINSRE
notes: chromosomal replication initiator protein DnaA of Arcobacter butzleri RM4018, cloned from genomic DNA; Supplemented with 3 mM ATP for electron microscopy; also called A. butzleri DnaA; source: purified as described in (Zawilak-Pawlik et al., 2006) with minor modifications (Supplementary Materials)
B2: Wolinella succinogenes DnaA protein (natural protein, W. succinogenes DSM 1740, UniProt Q7MSY2 1-437, looked up)
chain: MLGDTTLKQLKDEISTLEYERYIKQLRYDEEASRTDLAVYIAPNQFIANWVKTKYGERLAHLFELSTGIRPKIEIRLGSLKKDVKSSSPKAGVSKGQKSTILNPSFTFDSFVVGNSNRFAYEVSQNVAKKQGIAYNPLLIYGGTGLGKTHLLNSIGNYNVAKGKSVIYVTSEQFLNDYLYHIRNNTMDRFRDKYRACDYLLIDDVQFFGGKPQIQEEFFHTFNELHNKNKQIVLTSDKTPKQIAGLEERLKSRFEWGMVSDIQPPELETKINIIKKKCEFDGIYLSNEIISYIATNMDNNIREIEGIIIKLNAYANLMNQEITLQFAKNVLKEQIKEERENITLENIIEVVSKELNVKPAEIKSKGRSKNIANARRIVIFLARTLTPNSMPSLAQFFGMKDHSSVSKAMKTVKTEIEEDANFKMVIEELKNKIKSRN
notes: chromosomal replication initiator protein DnaA of Wolinella succinogenes DSM 1740, cloned from genomic DNA; Supplemented with 3 mM ATP for electron microscopy; also called W. succinogenes DnaA; source: purified as described in (Zawilak-Pawlik et al., 2006) with minor modifications (Supplementary Materials)

Biological target: the molecule itself
Test: electron microscopy; purified DnaA (3 mM ATP) incubated with supercoiled plasmids carrying oriC1-dnaA-oriC2 (pAbori1ori2, pSdori1ori2, pWsoriori2); complexes stabilised by glutaraldehyde cross-linking, linearised with ScaI; looped DNA with one protein complex joining oriC1 and oriC2; DnaA molecules are DNA-bound

| Protein | binding result |
| --- | --- |
| B1 | binds |
| B2 | binds |
